Results reported in patent US20240024520A1, “AUTONOMOUS KNOB DOMAIN PEPTIDES” (UCB BIOPHARMA SRL, priority 2020, published 2024).

These substances were tested against C5 (Homo sapiens, UniProt P01031) (assay: Monoclonal phage screening ELISA, human C5). Conditions: anti-C5 ultralong CDR-H3; binder = OD>0.2 AU.
Format: binding
Description: For the C5 libraries, a single round of enrichment was performed with either human or rat C5 protein. […] Phage were blocked for 30 minutes. Biotinylated antigen was added to the blocked phage at a concentration of 100 nM and incubated at room temperature with mixing.
Colonies were picked into a 96-well culture plate containing selective medium 2TY supplemented with 1% Glucose and 100 μg/ml Carbenicillin and was incubated at 37° C. until wells reached mid-log phase of growth prior to addition of M13K07 helper phage. The block was incubated without shaking for 1 hour to achieve infection and phage production using continued culture in selective media supplemented with 50 μg/ml Kanamycin and 100 μg/ml Carbenicillin.
Binding to antigen was assessed by monoclonal phage ELISA, 96-well flat bottom Nunc MaxiSorp plates (Thermofisher) were coated with a 2.5 μg/ml solution of human, mouse, or rat serum albumin, human C5 or mouse C5 diluted with PBS, and left overnight at 4° C. Negative control plate and Anti-myc tag plate were also prepared.
Monoclonal phage rescue supernatants were blocked with an equal volume of a 2% milk (w/v) in PBS, for serum albumin proteins, or 2% BSA and 2% milk (w/v) in PBS solution. The coating solution was removed from coated Nunc plates and each plate was blocked with 1% BSA in PBS (for C5 libraries) or 1% milk powder (for albumin library). Both phage and Nunc plates were blocked for 1 hour at room temperature. Nunc plates were washed using a 96-well microplate washer (BioTek) with a PBS solution contain 0.1% Tween20 (Sigma Aldrich). 100 of blocked phage solution was added to each well of Nunc MaxiSorp plate and left shaking at room temperature for 1 hour. Plates were washed and dried as previously described. 100 of an Anti-M13-Horse radish peroxidase conjugated antibody (GE Healthcare) diluted (1:5,000) in a 1% BSA or milk solution was added to each well and left shaking at room temperature for 1 hour. Plates were washed again and 50 μL of TMB solution (Merck Millipore) was added to each well. Plates were left shaking for 10 minutes. Absorbance was measured at 630 nm and 490 nm. Binding signals were obtained where Absorbance at 630 nm was >3-times the signal upon irrelevant antigen.
By monoclonal phage ELISA the following ultralong CDR-H3 sequences were identified as binders (OD>0.2 AU): […]

C5, sequence (P01031 19-1676): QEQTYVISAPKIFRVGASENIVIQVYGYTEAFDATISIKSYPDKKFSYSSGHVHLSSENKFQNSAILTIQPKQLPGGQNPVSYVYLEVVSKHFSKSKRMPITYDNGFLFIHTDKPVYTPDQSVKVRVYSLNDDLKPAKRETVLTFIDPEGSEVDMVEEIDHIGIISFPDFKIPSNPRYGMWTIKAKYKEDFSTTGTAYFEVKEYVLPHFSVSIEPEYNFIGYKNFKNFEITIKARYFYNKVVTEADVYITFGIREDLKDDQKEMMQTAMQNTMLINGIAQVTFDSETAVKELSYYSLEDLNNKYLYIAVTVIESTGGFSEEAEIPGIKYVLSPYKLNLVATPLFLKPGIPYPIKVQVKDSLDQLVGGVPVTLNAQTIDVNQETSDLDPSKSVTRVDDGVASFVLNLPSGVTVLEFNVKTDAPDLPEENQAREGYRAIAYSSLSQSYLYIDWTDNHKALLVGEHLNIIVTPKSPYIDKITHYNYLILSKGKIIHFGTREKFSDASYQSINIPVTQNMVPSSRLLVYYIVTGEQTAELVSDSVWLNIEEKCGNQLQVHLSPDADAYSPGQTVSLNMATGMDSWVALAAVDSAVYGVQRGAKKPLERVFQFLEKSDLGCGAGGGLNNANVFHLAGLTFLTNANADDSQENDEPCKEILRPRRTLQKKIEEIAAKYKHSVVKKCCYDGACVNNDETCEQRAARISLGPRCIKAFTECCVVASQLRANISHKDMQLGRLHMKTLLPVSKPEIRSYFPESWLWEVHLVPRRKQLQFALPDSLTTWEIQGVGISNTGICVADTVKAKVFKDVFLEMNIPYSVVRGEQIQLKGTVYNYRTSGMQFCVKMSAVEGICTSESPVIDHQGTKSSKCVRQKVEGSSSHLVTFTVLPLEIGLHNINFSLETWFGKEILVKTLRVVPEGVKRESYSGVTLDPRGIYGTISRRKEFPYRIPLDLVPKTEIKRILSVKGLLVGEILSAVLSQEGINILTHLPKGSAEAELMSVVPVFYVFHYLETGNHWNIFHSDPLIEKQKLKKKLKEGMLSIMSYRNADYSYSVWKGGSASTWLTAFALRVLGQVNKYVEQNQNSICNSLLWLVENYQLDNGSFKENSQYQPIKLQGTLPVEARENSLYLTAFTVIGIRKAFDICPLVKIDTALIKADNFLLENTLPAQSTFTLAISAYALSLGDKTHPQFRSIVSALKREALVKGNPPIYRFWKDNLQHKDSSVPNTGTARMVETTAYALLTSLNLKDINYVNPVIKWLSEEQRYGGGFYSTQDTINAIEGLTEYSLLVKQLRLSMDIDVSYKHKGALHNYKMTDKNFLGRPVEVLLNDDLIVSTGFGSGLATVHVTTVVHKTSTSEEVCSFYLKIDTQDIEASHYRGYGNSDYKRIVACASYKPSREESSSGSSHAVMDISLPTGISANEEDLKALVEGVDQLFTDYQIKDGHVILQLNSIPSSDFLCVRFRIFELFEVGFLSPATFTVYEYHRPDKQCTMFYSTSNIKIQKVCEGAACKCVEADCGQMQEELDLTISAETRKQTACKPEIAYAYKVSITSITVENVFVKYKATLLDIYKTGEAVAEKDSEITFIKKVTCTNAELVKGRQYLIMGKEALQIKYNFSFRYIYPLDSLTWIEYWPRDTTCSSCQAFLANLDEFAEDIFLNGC

| Substance | Specificity |
| --- | --- |
| 567 (TTVHQRTTKRCPSNNEDATACRYSSVCGDYVCEGLSESYAQGWGACRRYACRDSYEWYVD; Anti-C5 ultralong CDR-H3) [compound 567] | Human |
| 569 (TTVHQRTAKRCPSNNEEATACRYSSVCGDYVCEGLSESYAQGWGACRRYACRDSYEWYVD; Anti-C5 ultralong CDR-H3) [compound 569] | Human |
| 560 (TTVHQRTAKRCPSNNEDATACRYSSVCGDYVCEGLSESYAQGWGACRRYACRDSYEWYVD; Anti-C5 ultralong CDR-H3) [compound 560] | Human |
| 571 (TTVHQRTIKSGCPPGYKSGVDCSPGSECKWGCYAVDGRRYGGYGADSGVGSTYTHEWYVD; Anti-C5 ultralong CDR-H3) [compound 571] | Human |
| 566 (TTVVQRTKRTCPEGLVYNSDQSRCCAADSGVCWEYWRGERVTRGFTYEWYVD; Anti-C5 ultralong CDR-H3) [compound 566] | Human |
| 546 (TTVHQRTKKTCPLGYDLNDRCDHFNTCRVEECCKNGVVNAYGICEYAGGSATYTYEWYVE; Anti-C5 ultralong CDR-H3) [compound 546] | Human |
| 559 (TTVHQRTAKRCPSNNEDATACRYSSVCGDYVCEGLSESYAQGWGACRRYACRDSYEWYVD; Anti-C5 ultralong CDR-H3) [compound 559] | Human |
| 562 (TTVHQQTTKKSSCPDGYCDCNGCGYGNGCSRGGCFDFRLYSGYSADIVVSTTYTHDFYID; Anti-C5 ultralong CDR-H3) [compound 562] | Human |
| 544 (TTVHQRTLKNRNCPDGYGYQRHCTVGEDCTDSCCDRYGLCTTSTETYTYELYVE; Anti-C5 ultralong CDR-H3) [compound 544] | Human |
| 548 (TTVHQRTLKNRNCPDGYGYQRHCTVGEDCTDSCCDRYGLCTTSTETYTYEWYVD; Anti-C5 ultralong CDR-H3) [compound 548] | Human |
| 561 (TTVHQQTNKRRQNCPDGYEYNGFCTPDGGCSRVSNWGWDRSCISPTYTYTYEWYVE; Anti-C5 ultralong CDR-H3) [compound 561] | Human |
| 541 (TTVHQRTIKSGCPPGYKSGVDCSPGSECKWGCYAVDGRRYGGYGADSGVGSTYTHEYHVE; Anti-C5 ultralong CDR-H3) [compound 541] | Human |
| 545 (TTVHQRTLKNRNRPEGYGYQRHCTVGEECTDSCCDRYGLCTTSTETYTYEWYVD; Anti-C5 ultralong CDR-H3) [compound 545] | Human |
| 570 (TTVHQRTIKSGCPPGYKSGVDCSPGSEYKWGCYAVDGRRYGGYGADSGVGSTYTHEFYVN; Anti-C5 ultralong CDR-H3) [compound 570] | Human |
| 550 (TTVHQRTLHNRNCPDGYGYQRHCTVGEDCTERCCDNYGLCTSYTDTYTYEFYVN; Anti-C5 ultralong CDR-H3) [compound 550] | Human |
| 565 (TTVHQRTIKSGCPPGYKSGVDCSPGSECKWGCYAVDGRRYGGYGADSGVGSTYTHELYVE; Anti-C5 ultralong CDR-H3) [compound 565] | Human |
| 547 (TTVHQRTLKNRNCPDGYGYQRHCTVGEDCTDSCCDRYGLCTTSTETYTYEFYVN; Anti-C5 ultralong CDR-H3) [compound 547] | Human |
| 549 (TTVHQRTLKNRNCPDGYGYQRHCTVGEDCTDSCCDRYGLCTTSTETYTYEWYVD; Anti-C5 ultralong CDR-H3) [compound 549] | Human |
| 543 (TTVHQRTLKNRNCPDGYGYQRHCTVGEDCTDHCCDAYGLCTSYTYTYTYEWYVD; Anti-C5 ultralong CDR-H3) [compound 543] | Human |

Same assay, conditions: knob domain of the anti-C5 ultralong CDR-H3

| Substance | Specificity |
| --- | --- |
| 579 (HCSPGSDCSWGCYDRDDRRVDGAGADSGLGSTST; Anti-C5 ultralong CDR-H3 knob domain) [compound 579] | Human |
| 608 (RCPSNNEEATACRYSSVCGDYVCEGLSESYAQGWGACRRYACRDS; Anti-C5 ultralong CDR-H3 knob domain) [compound 608] | Human |
| 606 (TCPEGLVYNSDQSRCCAADSGVCWEYWRGERVTRGFT; Anti-C5 ultralong CDR-H3 knob domain) [compound 606] | Human |
| 586 (NCPDGYKYNGFCTPDGGCSRVSSWGWDRSCISPT; Anti-C5 ultralong CDR-H3 knob domain) [compound 586] | Human |
| 591 (NCPDGYGYQRHCTVGEDCTDSCCDRYGLCTTSTET; Anti-C5 ultralong CDR-H3 knob domain) [compound 591] | Human |
| 605 (GCPPGYKSGVDCSPGSECKWGCYAVDGRRYGGYGADSGVGST; Anti-C5 ultralong CDR-H3 knob domain) [compound 605] | Human |
| 588 (SCPDGYHFIEPCHSGLCWREGACNGDGICANGLGRCRTVSETST; Anti-C5 ultralong CDR-H3 knob domain) [compound 588] | Human |
| 600 (RCPSNNEDATACRYSSVCGDYVCEGLSESYAQGWGACRRYACRDS; Anti-C5 ultralong CDR-H3 knob domain) [compound 600] | Human |
| 581 (HCSPGSDCSWGCYDKDDRRVDGAGVASGLGST; Anti-C5 ultralong CDR-H3 knob domain) [compound 581] | Human |
| 607 (TCPDGYSYSEGCGKGDDCGGVHCCANGGVTCWYRHCCSTGTDT; Anti-C5 ultralong CDR-H3 knob domain) [compound 607] | Human |
| 590 (NCPDGYGYQRHCTVGEDCTDHCCDAYGLCTS; Anti-C5 ultralong CDR-H3 knob domain) [compound 590] | Human |
| 585 (RCPDGCFLSSYCPVGYACSGFACCDCGGYDYAGGVRGGRCSVRSTT; Anti-C5 ultralong CDR-H3 knob domain) [compound 585] | Human |
| 583 (SCPDGYHFIEPCHSGLCWREGACNGDGICANGLGRCRTVSETST; Anti-C5 ultralong CDR-H3 knob domain) [compound 583] | Human |
| 589 (GCPTGTVAGVHCSPGSDCSWGCYDADDRRVDGYGADSGVGSP; Anti-C5 ultralong CDR-H3 knob domain) [compound 589] | Human |
| 609 (SGCPPGYKSGVDCSPGSEYKWGCYAVDGRRYGGYGADSGVGST; Anti-C5 ultralong CDR-H3 knob domain) [compound 609] | Human |
| 587 (GCPPGTVAGVHCSPGSDCSWGCYDRDDRRVDGAGADSGLGSTST; Anti-C5 ultralong CDR-H3 knob domain) [compound 587] | Human |
| 592 (HCTVGEECTDSCCDRYGLCTTSTET; Anti-C5 ultralong CDR-H3 knob domain) [compound 592] | Human |
| 582 (GCPPGYKSGVDCSPGSECKWGCYAVDGRRYGGYGADSGVGST; Anti-C5 ultralong CDR-H3 knob domain) [compound 582] | Human |
| 593 (NCPDGYGYQRHCTVGEDCTERCCDNYGLCTSYTDT; Anti-C5 ultralong CDR-H3 knob domain) [compound 593] | Human |
| 584 (GCPTGTVAGVHCSPGSDCSWGCYDKDDRRVDGAGAASGLGST; Anti-C5 ultralong CDR-H3 knob domain) [compound 584] | Human |
| 603 (SCPDGWGHSDDCNCACSANAYACCKRDWLLPGPSCECSTYCVS; Anti-C5 ultralong CDR-H3 knob domain) [compound 603] | Human |
| 602 (SCPDGYCDCNGCGYGNGCSRGGCFDFRLYSGYSADIVVSTT; Anti-C5 ultralong CDR-H3 knob domain) [compound 602] | Human |
| 604 (SCPDGWSDCHGSCDGVGCTGSDCVRYNARGYGRHACSG; Anti-C5 ultralong CDR-H3 knob domain) [compound 604] | Human |
| 580 (SCPDGYKDNRFCSPDGGCSAVSHWGWDSSCVS; Anti-C5 ultralong CDR-H3 knob domain) [compound 580] | Human |
| 601 (NCPDGYEYNGFCTPDGGCSRVSNWGWDRSCISPT; Anti-C5 ultralong CDR-H3 knob domain) [compound 601] | Human |
